Each block holds one substance with its values, some of them ahead of it.
Columns and labels:
[1] = molecular target: His-SpNDK H121A mutant (catalytically inactive) (Streptococcus pneumoniae); test: mass photometry; Refeyn OneMP; 50 mM HEPES pH 7.4, 150 mM NaCl with ATP or GTP and 5 mM MgCl2, 5 min at 22°C before the analysis
[2] = molecular target: Streptococcus pneumoniae nucleoside diphosphate kinase with an N-terminal hexa-histidine tag (His-SpNDK), wild type (Streptococcus pneumoniae); test: mass photometry; Refeyn OneMP; His-SpNDK diluted to 200 nM, 5 µL added to 15 µL of buffer; 50 mM HEPES pH 7.4, 100 mM NaCl; no nucleotide (ADP or GDP had no significant effect on the wild type)
[3] = molecular target: Streptococcus pneumoniae nucleoside diphosphate kinase with an N-terminal hexa-histidine tag (His-SpNDK), wild type (Streptococcus pneumoniae); test: SEC; Superdex 200 Increase 10/300 GL, 50 mM HEPES pH 7.4, 100 mM NaCl; concentrated sample; molecular weights from a standard curve
[4] = molecular target: His-SpNDK R28A mutant (Streptococcus pneumoniae); test: as above

Substance: His-SpNDK H121A mutant (catalytically inactive) (enzyme)
stoichiometry N [1]: < 6

stoichiometry N [2]: 18
stoichiometry N [3]: 18
Substance: Streptococcus pneumoniae nucleoside diphosphate kinase with an N-terminal hexa-histidine tag (His-SpNDK), wild type (enzyme)

Substance: His-SpNDK R28A mutant (enzyme)
stoichiometry N [4]: 2
